Source: patent publication US20040072162A1, “Hiv peptides and nucleic acids encoding them for diagnosis and control of hiv infection” (priority 2000, published 2004)

B1: 8.88nat (peptide)
peptide: AIEAQQHLL
modifications: not checked
B2: 8.116nat (peptide)
peptide: ALGIIQAQ
modifications: not checked
B3: 8.12nat (peptide)
peptide: ALAALITPK
modifications: not checked
B4: 8.121mod (peptide)
peptide: WLFKLVPV
modifications: not checked
B5: 8.16nat (peptide)
peptide: ILVESPAVL
modifications: not checked
B6: 8.115nat (peptide)
peptide: LNFPISPI
modifications: not checked
B7: 4.14 (peptide)
peptide: SLVKHHMYV
modifications: not checked
B8: 8.75natV (peptide)
peptide: NIWATHACV
modifications: not checked
B9: 8.33nat (peptide)
peptide: LKTAVQMAV
modifications: not checked
B10: 8.65nat (peptide)
peptide: ATLEEMMTA
modifications: not checked
B11: 8.47nat (peptide)
peptide: RLAFHHMAR
modifications: not checked
B12: 8.3nat (peptide)
peptide: ALVEMGHHA
modifications: not checked
B13: 8.64nat (peptide)
peptide: ALGPAATLE
modifications: not checked
B14: 8.11natM (peptide)
peptide: GLADQLIHM
modifications: not checked
B15: 8.45natC (peptide)
peptide: LCFGWCFKL
modifications: not checked
B16: 8.15natM (4.40) (peptide)
peptide: GMGSPQILV
modifications: not checked
B17: 8.123natG (peptide)
peptide: TGNPPIPV
modifications: not checked
B18: 8.10natT (peptide)
peptide: KTKPPLPSV
modifications: not checked
B19: 8.49nat (peptide)
peptide: NTVATLYCV
modifications: not checked
B20: 8.1nat (peptide)
peptide: VVAAIIAIV
modifications: not checked
B21: 8.121nat (peptide)
peptide: WCFKLVPV
modifications: not checked
B22: 8.42nat (peptide)
peptide: YLAWVPAHK
modifications: not checked
B23: 8.93nat (peptide)
peptide: YIKIFIMIV
modifications: not checked
B24: 8.135nat (peptide)
peptide: FLGAAGST
modifications: not checked
B25: 8.56nat (peptide)
peptide: TLQEQIGWM
modifications: not checked
B26: 8.54nat (peptide)
peptide: RTLNAWVKV
modifications: not checked
B27: 8.21nat (peptide)
peptide: FLWMGYELH
modifications: not checked
B28: 8.14nat (peptide)
peptide: LQLPPIERL
modifications: not checked
B29: 4.14 variant (peptide)
peptide: SLVKHHMYI
modifications: not checked
B30: 8.130nat (peptide)
peptide: SGGDPEIV
modifications: not checked

Biological target: HLA-A2 MHC-I (HLA-A*0204, affinity purified from the EBV transformed cell line RML) (human)

Binder	Kd [nM]
B1	850
B2	97
B3	62
B4	183
B5	13
B6	29
B7	21
B8	57
B9	1330
B10	77
B11	670
B12	160
B13	830
B14	135
B15	580
B16	120
B17	700
B18	39
B19	170
B20	260
B21	200
B22	200
B23	24
B24	870
B25	245
B26	170
B27	445
B28	7.3
B29	123
B30	950
